Changes are numbered by the printed parent chain. Where two headings read alike, the source gives them in different places. Each block holds one molecule with its values, some of them ahead of it.
Assays:
[1] = target: T1, S287-K347 PHD1 (KDM5A, GST-PHD1) (Homo sapiens, UniProt P29375); experiment: Fluorescence polarization binding to PHD1 S287-K347
T1 construct: Expression of GST-PHD1 (Ser287-Lys347); GST (N); made in house; host or cells: E. coli BL21(DE3)
T1 sequence (P29375 287-347): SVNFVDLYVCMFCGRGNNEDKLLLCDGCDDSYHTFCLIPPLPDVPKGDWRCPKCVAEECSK
Procedure: (§1) All PHD1 constructs used (Val291-[…], S287-K347, and S287-K347 D292A) (Supplementary Figure 1) were cloned into a pET41a vector and expressed in BL21(DE3) E. coli cells. Expression and purification of all mutants followed the same protocol. Specifically, cells were induced with 0.4 mM IPTG and grown at 18 °C overnight before the pellet was collected. The cells were resuspended in lysis buffer (140 mM NaCl, 2.7 mM KCl, 10 mM Na2HPO4, 1.8 mM KH2PO4, 0.5 mM TCEP, 50 µM ZnCl2, 1 mM phenylmethylsulfonyl fluoride (PMSF), pH 7.3), lysed by sonication and centrifuged. The supernatant was purified using Glutathione Sepharose 4B resin, washed with high salt buffer (50 mM HEPES, 700 mM KCl, 10% glycerol, 0.5 mM TCEP, […], 1 mM PMSF, pH 8) and low salt buffer (50 mM HEPES, 150 mM KCl, 10% glycerol, 0.5 mM TCEP, […], 1 mM PMSF, pH 8) and recovered by elution using low salt buffer with 30 mM glutathione. The sample was then concentrated and further purified by size-exclusion chromatography using a Hiload 26/60 Superdex 75 gel filtration column. Samples were eluted into 40 mM HEPES, 50 mM KCl, 0.5 mM TCEP, and […] and flash-frozen.
Data from direct FP measurements were fitted to equation 1: FPobs=FPmaxPHD1+FPminKd/Kd+[PHD1]
Data from competition-based FP assays were fitted to equation 2: FPobs=KiFPmaxPHD1+FPminKd+FPminKd[I]/KiKd+[PHD1]+Kd[I] where FPobs is the observed FP, FPmax is the maximum FP value, FPmin is the minimum FP value, [PHD1] is concentration of PHD1, Kd is the dissociation constant, Ki is the inhibition constant referring to the competing peptide and [I] is the competing peptide concentration.

KDM5A1-797 = target: T2, KDM5A1-797 (Homo sapiens, UniProt P29375); experiment: KDM5A demethylation, FDH-coupled formaldehyde release assay; assay type: biochemical; conditions: for kcat / Km: 1 μM KDM5A, pH 7.5, room temperature, n ≥ 3, s.e.m.; for Km: read-out: Km
T2 construct: KDM5A1-797 was cloned into a pFASTBAC HTA vector; His (N, cleaved yes); made in house; host or cells: Sf21 insect cells (baculovirus)
T2 sequence (P29375 1-797): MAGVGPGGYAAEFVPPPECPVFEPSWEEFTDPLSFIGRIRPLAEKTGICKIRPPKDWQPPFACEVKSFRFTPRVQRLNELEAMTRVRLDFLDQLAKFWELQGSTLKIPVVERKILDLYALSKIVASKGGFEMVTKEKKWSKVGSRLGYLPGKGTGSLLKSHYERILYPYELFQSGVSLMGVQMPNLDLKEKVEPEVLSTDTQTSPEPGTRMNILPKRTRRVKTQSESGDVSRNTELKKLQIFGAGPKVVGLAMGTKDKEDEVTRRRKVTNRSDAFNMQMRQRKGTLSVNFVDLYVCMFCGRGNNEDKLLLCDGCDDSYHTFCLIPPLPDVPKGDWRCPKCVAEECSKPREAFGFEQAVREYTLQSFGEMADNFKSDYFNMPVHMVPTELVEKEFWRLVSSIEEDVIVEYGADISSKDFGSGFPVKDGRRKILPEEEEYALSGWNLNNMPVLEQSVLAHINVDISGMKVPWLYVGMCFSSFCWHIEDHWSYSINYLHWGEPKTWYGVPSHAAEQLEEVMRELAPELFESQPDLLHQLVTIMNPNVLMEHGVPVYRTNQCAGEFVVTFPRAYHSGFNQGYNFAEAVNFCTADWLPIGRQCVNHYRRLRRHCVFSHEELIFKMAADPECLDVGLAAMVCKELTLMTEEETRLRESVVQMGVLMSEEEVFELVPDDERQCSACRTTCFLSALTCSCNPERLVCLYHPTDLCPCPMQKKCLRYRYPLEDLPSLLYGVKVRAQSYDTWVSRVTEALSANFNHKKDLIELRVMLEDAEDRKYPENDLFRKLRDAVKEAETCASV
Procedure: WT KDM5A1-797 was expressed in Sf21 cells following Invitrogen Bac-to-Bac baculovirus expression system protocol. KDM5A1-797 was cloned into a pFASTBAC HTA vector. Purified bacmid was transfected in Sf21 cells. Approximately […] cells per well of a six-well dish were allowed to attach in 2 ml of SF-900 II SFM media containing 50 U ml^−1 penicillin and 50 μg ml^−1 streptomycin. While cells attached, 8 μl of Cellfectin II reagent (Invitrogen) in 100 μl of unsupplemented Grace’s medium was mixed with ~2–5 μg of bacmid in 100 μl of unsupplemented Grace’s medium and incubated for 15–30 min at 25 °C. Once cells were attached, media was removed and cells were washed with 2 ml of Grace’s unsupplemented media. The bacmid DNA:Cellfectin mixture was then diluted to 1 ml with Grace’s unsupplemented media and added to the well. Cells with bacmid:Cellfectin II mixture were incubated for 5 h at 27 °C. After 5 h of incubation, bacmid:Cellfectin mixture was removed and replaced with 2 ml of SF-900 II SFM 50 U ml^−1 penicillin and 50 μg ml^−1 streptomycin. Transfected cells were incubated 3–5 days or until signs of viral infection were observed. After transfection, the supernatant was spun down to remove the dead cells. The supernatant was then sterile filtered to obtain the P1 viral stock. To make P2, 20 ml of […] at ~2 × 10^6 cells per ml of sf21 was infected with 2 ml of P1 virus and incubated for 48–60 h. After 56 h, the cells were spun down and the supernatant was collected and sterile filtered to obtain P2 viral stock. Similarly, P3 viral stock from P2 viral stock was obtained. Generally, 1 l of Sf21 at 2 × 10^6 cells per ml was infected with ~40 ml of P3 virus for ~48–56 h. Cells were then collected and resuspended in the lysis buffer (25 mM HEPES pH 7.9, 350 mM NaCl, 5 mM KCl, 1.5 mM MgCl2, 10 mM imidazole, aprotinin 2 μg ml^−1, leupeptin 3 μg ml^−1, pepstatin 3 μg ml^−1, and 1 mM PMSF). Cells were homogenized by emulsiflex. After lysis, the supernatant was recovered by centrifuging at 35k r.p.m. for 45 min, and incubated with cobalt resin equilibrated in lysis buffer for 1 h at 4 °C. After incubation the resin was washed with wash buffer (25 mM HEPES, pH 7.9, 350 mM NaCl, 0.5 mM MgCl2, 10% glycerol, 10 mM imidazole, aprotinin 2 μg ml^−1, leupeptin 3 μg ml^−1, pepstatin 3 μg ml^−1, and 1 mM PMSF). His-KDM5A was eluted with elution buffer (25 mM HEPES pH 7.9, 100 mM NaCl, 0.5 mM MgCl2, 10% glycerol, 100 mM imidazole, aprotinin 2 μg ml^−1, leupeptin 3 μg ml^−1, pepstatin 3 μg ml^−1, and 1 mM PMSF). The His-tag was removed by overnight incubation with TEV protease at 4 °C in the dialysis buffer (25 mM HEPES, pH 7.9, 100 mM NaCl, and 2 mM DTT). After cleavage, protein was further purified by size-exclusion chromatography using a S200 column. Purified KDM5A was eluted, aliquoted and stored at −80 °C in 40 mM HEPES, pH 7.9, 50 mM KCl.
Michaelis–Menten parameters were determined using Graphpad Prism.

[2] = target: T3, S287-K347 PHD1 D292A (KDM5A, GST-PHD1) (Homo sapiens, UniProt P29375, D292A); experiment: Fluorescence polarization binding to PHD1 S287-K347 D292A; conditions: compared to WT PHD1S287-K347
T3 construct: S287-K347, and S287-K347 D292A; GST (N); made in house; host or cells: E. coli BL21(DE3)
T3 sequence (P29375 287-347 D292A): T1 sequence (P29375 287-347) with D6A
Procedure: as §1
Data from direct FP measurements were fitted to equation 1: FPobs=FPmaxPHD1+FPminKd/Kd+[PHD1] […]

PHD1KDM5B = conditions: cited from earlier work
From the text: This study presents a significant amount of biochemical and biophysical work to reveal the molecular basis underlying the allosteric enhancement in a quantitative manner. […] H ...

Kd ([1]; modified H3 10mer N-terminal peptides, competition-based FP, NB = no binding, n ≥ 3, s.e.m., construct not stated in legend, read-out: PHD1 binding Kd (Fig. 4a)): 205 ± 73 µM
Molecule: C[C@H](N)C(=O)N[C@@H](C)C(=O)N[C@H](C(=O)N[C@@H](CCCCN)C(=O)N[C@@H](CCC(N)=O)C(=O)N[C@H](C(=O)N[C@@H](C)C(=O)N[C@@H](CCCNC(=N)N)C(=O)N[C@@H](CCCCN)C(=O)N[C@@H](CO)C(=O)O)[C@@H](C)O)[C@@H](C)O [H3R2A]

binding to PHD1 domain ([1]; FP, at the concentrations used in our assays (Supplementary Figure 3a: Ac-H3K4me2-FAM, PHD1S287-K347)): does not bind to the PHD1 domain
reduction in Km on addition of effector peptide (KDM5A1-797; 38 µM H3 10mer effector peptide vs none): fivefold
kcat/Km (KDM5A1-797; +H3 10mer peptide (38 µM)): 427 ± 95 M⁻¹ s⁻¹
kcat (KDM5A1-797; +H3 10mer peptide (38 µM)): 0.0233 ± 0.001 s⁻¹
Km (KDM5A1-797; +H3 10mer peptide (38 µM)): 54.7 ± 9.9 µM
kcat/Km (KDM5A1-797; No effector peptide): 98 ± 34 M⁻¹ s⁻¹
kcat (KDM5A1-797; No effector peptide): 0.0225 ± 0.00183 s⁻¹
Km (KDM5A1-797; No effector peptide): 229 ± 60 µM
Molecule: Ac-H3K4me2 21mer: N-terminally acetylated 21mer H3K4me2 peptide (Ala1-Ala21)

decrease in affinity, D292A vs WT PHD1S287-K347 ([2]; listed as H3 peptide): 7.6 fold
decrease in affinity, D292A vs WT PHD1S287-K347 ([2]; listed as unmodified H3 peptide): approximately eightfold
preference for WT H3 peptide over H3K4A peptide ([1]; ratio of Kd): 2.3 fold
Molecule: H3K4me0: C-terminal fluorescently labeled unmodified H3 10mer peptide, affinity by direct FP
decrease in affinity for H3 peptide on mutation of the analogous Asp in KDM5B PHD1 (PHD1KDM5B; PHD1KDM5B Asp mutant vs WT, ref Klein Cell Rep 2014 and Zhang Protein Cell 2014): approximately 6 fold
discrimination of WT H3 over H3K4A peptide (PHD1KDM5B; PHD1KDM5B): 2.5 fold

Reference: article PMC6327041 (Nature Communications, 2019)
